{
  "source": "patent US20250277023A1",
  "target": "CHO-PD-L1 (UniProt Q9NZQ7)",
  "sequence (Q9NZQ7 19-290)": "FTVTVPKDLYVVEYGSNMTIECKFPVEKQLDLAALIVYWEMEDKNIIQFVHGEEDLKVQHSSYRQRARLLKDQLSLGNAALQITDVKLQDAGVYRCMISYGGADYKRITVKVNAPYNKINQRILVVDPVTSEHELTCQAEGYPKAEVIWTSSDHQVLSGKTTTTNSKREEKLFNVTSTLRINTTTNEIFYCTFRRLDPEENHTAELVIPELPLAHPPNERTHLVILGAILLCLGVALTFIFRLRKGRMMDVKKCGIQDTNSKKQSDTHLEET",
  "experiment": "FACS binding; Fig. 23",
  "data": [
    {"substance": "R0514(avelumab-mIgG2a)", "values": [
      {"measurement": "EC50", "result": 0.494, "unit": "nM"}
    ]}
  ]
}
